In PMC11849073, “Specific recognition mechanism of an antibody to sulfated tyrosine and its potential use in biological research” (The Journal of Biological Chemistry, 2025):
pKd: −log10 of the molar value.

How the values were obtained:
[1] = target: BA8 Fab LC S98 A mutant (light chain) (rabbit); test: ITC; MicroCal PEAQ-ITC; 10 μM BA8 Fab in the cell, 100 μM CCR5 N-terminal peptide in the syringe; PBS; 25 °C (297 K in the table's footnote); one set of sites
[2] = target: BA8 Fab N55 A mutant (heavy chain) (rabbit); test: as above
[3] = target: BA8 Fab S30 A mutant (heavy chain) (rabbit); test: as above
[4] = target: BA8 Fab S32 A mutant (heavy chain) (rabbit); test: as above
[5] = target: BA8 Fab S52 A mutant (heavy chain) (rabbit); test: as above
[6] = target: BA8 Fab W46 A mutant (heavy chain) (rabbit); test: as above
[7] = target: BA8 Fab Y31 A mutant (heavy chain) (rabbit); test: as above
[8] = target: BA8 Fab Y57 A mutant (heavy chain) (rabbit); test: as above
[9] = target: BA8 Fab Y57 F mutant (heavy chain) (rabbit); test: as above
[10] = target: BA8 Fab LC S98 A mutant (light chain) (rabbit); test: SPR; Biacore 8K; each Fab immobilised on a CM5 chip by amine coupling (pH 5.5, about 3000 RU); peptides as analytes, 2 to 162 nM (20 nM to 1620 nM for the R34 A, S52 A and Y57 A mutants of Fig. 3C); PBS with 0.005% Tween 20; 30 μl/min; global fitting
[11] = target: BA8 Fab N55 A mutant (heavy chain) (rabbit); test: as above
[12] = target: BA8 Fab S30 A mutant (heavy chain) (rabbit); test: as above
[13] = target: BA8 Fab S32 A mutant (heavy chain) (rabbit); test: as above
[14] = target: BA8 Fab W46 A mutant (heavy chain) (rabbit); test: as above
[15] = target: BA8 Fab Y31 A mutant (heavy chain) (rabbit); test: as above
[16] = target: BA8 Fab Y57 A mutant (heavy chain) (rabbit); test: as above
[17] = target: BA8 Fab Y57 F mutant (heavy chain) (rabbit); test: as above

Chain of BA8 Fab Y57 A mutant (heavy chain) (rabbit) (heavy, as listed by the source, chain 1 of 2): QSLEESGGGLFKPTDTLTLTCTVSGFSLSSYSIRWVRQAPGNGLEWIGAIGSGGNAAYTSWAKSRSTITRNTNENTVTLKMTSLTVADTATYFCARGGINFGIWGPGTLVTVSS
Chain of BA8 Fab Y57 A mutant (heavy chain) (rabbit) (light, as listed by the source, chain 2 of 2): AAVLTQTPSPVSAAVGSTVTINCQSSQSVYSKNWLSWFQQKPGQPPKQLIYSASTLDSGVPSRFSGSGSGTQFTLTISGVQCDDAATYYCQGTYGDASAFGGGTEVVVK
Chain of BA8 Fab S30 A mutant (heavy chain) (rabbit) (heavy, as listed by the source, chain 1 of 2): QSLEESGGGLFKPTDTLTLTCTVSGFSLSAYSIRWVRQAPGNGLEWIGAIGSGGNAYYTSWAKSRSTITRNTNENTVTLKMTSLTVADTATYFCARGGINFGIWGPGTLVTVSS
Chain of BA8 Fab Y57 F mutant (heavy chain) (rabbit) (heavy, as listed by the source, chain 1 of 2): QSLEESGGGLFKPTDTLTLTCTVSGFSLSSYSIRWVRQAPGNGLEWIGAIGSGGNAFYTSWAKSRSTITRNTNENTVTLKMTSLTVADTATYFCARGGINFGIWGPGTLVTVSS
Chain of BA8 Fab N55 A mutant (heavy chain) (rabbit) (heavy, as listed by the source, chain 1 of 2): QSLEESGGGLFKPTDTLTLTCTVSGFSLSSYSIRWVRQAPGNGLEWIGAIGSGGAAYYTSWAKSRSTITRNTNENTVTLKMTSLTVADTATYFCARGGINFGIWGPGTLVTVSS
Chain of BA8 Fab LC S98 A mutant (light chain) (rabbit) (heavy, as listed by the source, chain 1 of 2): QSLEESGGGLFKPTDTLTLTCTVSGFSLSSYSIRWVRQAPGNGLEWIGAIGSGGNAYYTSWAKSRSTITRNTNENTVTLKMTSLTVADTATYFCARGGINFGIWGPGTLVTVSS
Chain of BA8 Fab LC S98 A mutant (light chain) (rabbit) (light, as listed by the source, chain 2 of 2): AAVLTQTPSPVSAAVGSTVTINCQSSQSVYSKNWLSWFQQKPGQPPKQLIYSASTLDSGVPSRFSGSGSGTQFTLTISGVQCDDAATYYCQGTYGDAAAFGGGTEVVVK
Chain of BA8 Fab S32 A mutant (heavy chain) (rabbit) (heavy, as listed by the source, chain 1 of 2): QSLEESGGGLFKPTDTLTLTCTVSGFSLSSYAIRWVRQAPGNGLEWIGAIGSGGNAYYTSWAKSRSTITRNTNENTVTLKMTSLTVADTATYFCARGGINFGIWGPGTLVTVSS
Chain of BA8 Fab W46 A mutant (heavy chain) (rabbit) (heavy, as listed by the source, chain 1 of 2): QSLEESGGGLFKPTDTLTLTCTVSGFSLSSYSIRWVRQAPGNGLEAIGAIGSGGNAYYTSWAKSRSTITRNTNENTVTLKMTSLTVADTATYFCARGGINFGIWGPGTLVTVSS
Chain of BA8 Fab Y31 A mutant (heavy chain) (rabbit) (heavy, as listed by the source, chain 1 of 2): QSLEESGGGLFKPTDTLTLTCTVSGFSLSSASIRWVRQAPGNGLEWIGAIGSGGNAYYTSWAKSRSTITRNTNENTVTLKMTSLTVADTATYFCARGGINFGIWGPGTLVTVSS
Chain of BA8 Fab S52 A mutant (heavy chain) (rabbit) (heavy, as listed by the source, chain 1 of 2): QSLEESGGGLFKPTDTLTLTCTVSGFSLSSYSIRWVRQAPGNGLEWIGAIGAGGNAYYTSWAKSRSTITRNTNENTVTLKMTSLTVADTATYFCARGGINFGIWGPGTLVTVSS

dH [1]: -26.2 kcal/mol | stoichiometry N [1]: 0.924 sites | dH [2]: -27.6 kcal/mol | stoichiometry N [2]: 0.844 sites | dH [3]: -25.8 kcal/mol | stoichiometry N [3]: 0.892 sites | dH [4]: -26 kcal/mol | stoichiometry N [4]: 0.903 sites | pKd [5]: 6.14 | dH [5]: -16.6 kcal/mol | stoichiometry N [5]: 0.796 sites | pKd [6]: 8.21 | dH [6]: -27.2 kcal/mol | stoichiometry N [6]: 0.824 sites | pKd [7]: 8.36 | dH [7]: -22.8 kcal/mol | stoichiometry N [7]: 0.839 sites | pKd [8]: 7.13 | dH [8]: -21.7 kcal/mol | stoichiometry N [8]: 0.854 sites | pKd [9]: 7.98 | dH [9]: -25 kcal/mol | stoichiometry N [9]: 0.896 sites | pKd [10]: 8.62 | pKd [11]: 8.74 | pKd [12]: 8.84 | pKd [13]: 8.71 | pKd [14]: 7.66 | pKd [15]: 7.73 | pKd [16]: 6.35 | pKd [17]: 8.63
Substance: sulfated N-terminal peptide of CCR5 (Pro8 to Ser18 with sulfated Tyr10, Tyr14 and Tyr15)
